The results in this text go back to patent US20240141072A1 (published 2024).

Sequences and labels used below:
B1: 4E06 anti-DLL3 trispecific protein (other)
chain: EVQLVESGGGLVQPGGSLTLSCAASGTSVSFLSMAWYRQAPGKKRELVAGISADGSTDYIRSVKGRFTISRDNAKNSVYLQMNSLRAEDTAVYYCYAYRWTTRLTYWGQGTLVTVSS
notes: not shown: linker 1808, anti-albumin sdAb, linker 1808, anti-CD3 fragment, His6 1819
B2: 4F011 anti-DLL3 trispecific protein (other)
chain: EVQLVESGGGLVQPGGSLTLSCAASGSKVSFLSMAWYRQAPGKKRELVAGISADGSKDYIDSVKGRFTISRDNAKNSVYLQMNSLRAEDTAVYYCYAYRWTTRYTYWGQGTLVTVSS
notes: as for B1
B3: 4G02 anti-DLL3 trispecific protein (other)
chain: EVQLVESGGGLVQPGGSLTLSCAASGSSVKFLSMAWYRQAPGKKRELVAGISRDGSTDYIDSVKGRFTISRDNAKNSVYLQMNSLRAEDTAVYYCYAYRWTTRHTYWGQGTLVTVSS
notes: as for B1
B4: 4G03 anti-DLL3 trispecific protein (other)
chain: EVQLVESGGGLVQPGGSLTLSCAASGSSVKFLSMAWYRQAPGKKRELVAGISADGSTDYIHSVKGRFTISRDNAKNSVYLQMNSLRAEDTAVYYCYAYRWTRRYTYWGQGTLVTVSS
notes: as for B1
B5: 4G09 anti-DLL3 trispecific protein (other)
chain: EVQLVESGGGLVQPGGSLTLSCAASGSRVSFLSMAWYRQAPGKKRELVAGISYDGSTDYIDSVKGRFTISRDNAKNSVYLQMNSLRAEDTAVYYCYAYRWTTRRTYWGQGTLVTVSS
notes: as for B1
B6: 4F08 anti-DLL3 trispecific protein (other)
chain: EVQLVESGGGLVQPGGSLTLSCAASGSKVSFLSMAWYRQAPGKKRELVAGISADGSTAYIDSVKGRFTISRDNAKNSVYLQMNSLRAEDTAVYYCYAYRWRTRYTYWGQGTLVTVSS
notes: as for B1
B7: 4H09 anti-DLL3 trispecific protein (other)
chain: EVQLVESGGGLVQPGGSLTLSCAASGSSVSKLSMAWYRQAPGKKRELVAGISADGSTDYRDSVKGRFTISRDNAKNSVYLQMNSLRAEDTAVYYCYAYRWTYRYTYWGQGTLVTVSS
notes: as for B1
B8: 4G011 anti-DLL3 trispecific protein (other)
chain: EVQLVESGGGLVQPGGSLTLSCAASGSSVRFLSMAWYRQAPGKKRELVAGISADGSTDYIGSVKGRFTISRDNAKNSVYLQMNSLRAEDTAVYYCYAYRWSTRYTYWGQGTLVTVSS
notes: as for B1
B9: 4G05 anti-DLL3 trispecific protein (other)
chain: EVQLVESGGGLVQPGGSLTLSCAASGSSVSILSMAWYRQAPGKKRELVAGISADGSTIYIDSVKGRFTISRDNAKNSVYLQMNSLRAEDTAVYYCYAYRWHTRYTYWGQGTLVTVSS
notes: as for B1
B10: 4E08 anti-DLL3 trispecific protein (other)
chain: EVQLVESGGGLVQPGGSLTLSCAASGSSVKFLSMAWYRQAPGKKRELVAGISTDGSTDYIDSVKGRFTISRDNAKNSVYLQMNSLRAEDTAVYYCYAYKWTTRYTYWGQGTLVTVSS
notes: as for B1
B11: 4E011 anti-DLL3 trispecific protein (other)
chain: EVQLVESGGGLVQPGGSLTLSCAASGSSVSFLSMAWYRQAPGKKRELVAGISATGSTDYIDSVKGRFTISRDNAKNSVYLQMNSLRAEDTAVYYCYAYRWSTRYTYWGQGTLVTVSS
notes: as for B1
B12: 4H01 anti-DLL3 trispecific protein (other)
chain: EVQLVESGGGLVQPGGSLTLSCAASGSSVSFLSMAWYRQAPGKKRELVAGISANGSTDYYDSVKGRFTISRDNAKNSVYLQMNSLRAEDTAVYYCYAYRWRTRYTYWGQGTLVTVSS
notes: as for B1
B13: 4E09 anti-DLL3 trispecific protein (other)
chain: EVQLVESGGGLVQPGGSLTLSCAASGSSVSFLSSAWYRQAPGKKRELVAGISADGSTLYIDSVKGRFTISRDNAKNSVYLQMNSLRAEDTAVYYCYAYRWTTRSTYWGQGTLVTVSS
notes: as for B1
B14: 4F010 anti-DLL3 trispecific protein (other)
chain: EVQLVESGGGLVQPGGSLTLSCAASGSSVSFLSMAWYRQAPGKKRELVAGISIDGSTDYIKSVKGRFTISRDNAKNSVYLQMNSLRAEDTAVYYCYAYRWTTRYRYWGQGTLVTVSS
notes: as for B1
B15: 4F03 anti-DLL3 trispecific protein (other)
chain: EVQLVESGGGLVQPGGSLTLSCAASGSSVQFLSMAWYRQAPGKKRELVAGISYDGSTDYIDSVKGRFTISRDNAKNSVYLQMNSLRAEDTAVYYCYAYRWRTRYTYWGQGTLVTVSS
notes: as for B1
B16: 4H03 anti-DLL3 trispecific protein (other)
chain: EVQLVESGGGLVQPGGSLTLSCAASGSRVSFLSMAWYRQAPGKKRELVAGISADGSTSYIDSVKGRFTISRDNAKNSVYLQMNSLRAEDTAVYYCYAYRWTTRYTYWGQGTLVTVSS
notes: as for B1
B17: 4E07 anti-DLL3 trispecific protein (other)
chain: EVQLVESGGGLVQPGGSLTLSCAASGSRVSFLSMAWYRQAPGKKRELVAGISADGSTMYIDSVKGRFTISRDNAKNSVYLQMNSLRAEDTAVYYCYAYRWTTRLTYWGQGTLVTVSS
notes: as for B1
B18: 4H07 anti-DLL3 trispecific protein (other)
chain: EVQLVESGGGLVQPGGSLTLSCAASGRSVSFLSMAWYRQAPGKKRELVAGISANGSTDYIDSVKGRFTISRDNAKNSVYLQMNSLRAEDTAVYYCYAYRWSTRYTYWGQGTLVTVSS
notes: as for B1
B19: 4E010 anti-DLL3 trispecific protein (other)
chain: EVQLVESGGGLVQPGGSLTLSCAASGSSVKFLSMAWYRQAPGKKRELVAGISADGSTDYIDSVKGRFTISRDNAKNSVYLQMNSLRAEDTAVYYCYAYRWRTRYTYWGQGTLVTVSS
notes: as for B1
B20: 4H06 anti-DLL3 trispecific protein (other)
chain: EVQLVESGGGLVQPGGSLTLSCAASGRSVSFLSMAWYRQAPGKKRELVAGISADGSTIYIDSVKGRFTISRDNAKNSVYLQMNSLRAEDTAVYYCYAYRWTTRYTYWGQGTLVTVSS
notes: as for B1
B21: 4F04 anti-DLL3 trispecific protein (other)
chain: EVQLVESGGGLVQPGGSLTLSCAASRSSVSFLSMAWYRQAPGKKRELVAGISTDGSTDYIDSVKGRFTISRDNAKNSVYLQMNSLRAEDTAVYYCYAYRWLTRYTYWGQGTLVTVSS
notes: as for B1
B22: 4G08 anti-DLL3 trispecific protein (other)
chain: EVQLVESGGGLVQPGGSLTLSCAASGSSVRFLSMAWYRQAPGKKRELVAGISTDGSTDYIDSVKGRFTISRDNAKNSVYLQMNSLRAEDTAVYYCYAYRWTTRYRYWGQGTLVTVSS
notes: as for B1
B23: 4F02 anti-DLL3 trispecific protein (other)
chain: EVQLVESGGGLVQPGGSLTLSCAASGSTVSFLSMAWYRQAPGKKRELVAGISHDGSTDYIDSVKGRFTISRDNAKNSVYLQMNSLRAEDTAVYYCYAYRWTTRYTYWGQGTLVTVSS
notes: as for B1
B24: 4G010 anti-DLL3 trispecific protein (other)
chain: EVQLVESGGGLVQPGGSLTLSCAASGHSVSFLSMAWYRQAPGKKRELVAGISADGSTDYIASVKGRFTISRDNAKNSVYLQMNSLRAEDTAVYYCYAYRWSTRYTYWGQGTLVTVSS
notes: as for B1
B25: 4H08 anti-DLL3 trispecific protein (other)
chain: EVQLVESGGGLVQPGGSLTLSCAASGSSVKFLSMAWYRQAPGKKRELVAGISADGSTDYVDSVKGRFTISRDNAKNSVYLQMNSLRAEDTAVYYCYAYRWSTRYTYWGQGTLVTVSS
notes: as for B1
B26: 4G01 anti-DLL3 trispecific protein (other)
chain: EVQLVESGGGLVQPGGSLTLSCAASGSSVRFLSMAWYRQAPGKKRELVAGISADGSTVYIDSVKGRFTISRDNAKNSVYLQMNSLRAEDTAVYYCYAYRWPTRYTYWGQGTLVTVSS
notes: as for B1
B27: 4H05 anti-DLL3 trispecific protein (other)
chain: EVQLVESGGGLVQPGGSLTLSCAASGSSVSRLSMAWYRQAPGKKRELVAGISARGSTDYIDSVKGRFTISRDNAKNSVYLQMNSLRAEDTAVYYCYAYRWTTRSTYWGQGTLVTVSS
notes: as for B1
B28: 4G07 anti-DLL3 trispecific protein (other)
chain: EVQLVESGGGLVQPGGSLTLSCAASGSSVSFLSVAWYRQAPGKKRELVAGISANGSTDYIDSVKGRFTISRDNAKNSVYLQMNSLRAEDTAVYYCYAYRWTNRYTYWGQGTLVTVSS
notes: as for B1
B29: 4F09 anti-DLL3 trispecific protein (other)
chain: EVQLVESGGGLVQPGGSLTLSCAASGSRVSFLSMAWYRQAPGKKRELVAGISADGSTDYIESVKGRFTISRDNAKNSVYLQMNSLRAEDTAVYYCYAYRWTTRYTYWGQGTLVTVSS
notes: as for B1

This test addresses T1, biotinylated human DLL3 protein expressed as a human IgG1 fusion protein (human, UniProt Q9NYJ7 27-492, limits assumed, biotinylated).
T1 sequence: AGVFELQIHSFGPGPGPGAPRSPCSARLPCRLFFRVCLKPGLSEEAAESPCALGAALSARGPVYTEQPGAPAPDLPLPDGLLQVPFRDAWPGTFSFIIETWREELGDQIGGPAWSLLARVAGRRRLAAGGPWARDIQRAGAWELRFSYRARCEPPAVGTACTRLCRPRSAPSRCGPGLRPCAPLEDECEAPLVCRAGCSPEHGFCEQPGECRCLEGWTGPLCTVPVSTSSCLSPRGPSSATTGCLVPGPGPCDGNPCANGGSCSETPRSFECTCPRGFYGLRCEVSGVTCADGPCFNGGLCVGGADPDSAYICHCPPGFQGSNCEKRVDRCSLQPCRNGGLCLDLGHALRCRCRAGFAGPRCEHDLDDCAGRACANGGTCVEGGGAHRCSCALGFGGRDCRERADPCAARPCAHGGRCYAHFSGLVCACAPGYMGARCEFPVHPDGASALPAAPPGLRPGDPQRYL
In words: Octet BLI, single 50 nM. The procedure, abridged: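 Analyte: trispecific anti-DLL3 proteins in conditioned medium, concentration known; ligand: captured DLL3 fusion; output: binding affinity.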
(Biolayer interferometry detects binding as a change in optical thickness at a sensor tip.)
For orientation: Kd means the equilibrium constant for the complex coming apart. The low end stands for higher affinity, the high end for lower affinity. B1 had a Kd of 10 nM.
The molecule B2 gave a Kd of 8.2 nM.
The result for B3 reads 15 nM; that for B4, 20 nM; that for B5, 8.8 nM.
Consider B6, for which binding was put at a Kd of 9 nM.
The result for B7 reads 16 nM; that for B8, 7.5 nM.
With B9, the Kd worked out at 9.7 nM.
In the case of B10, the Kd worked out at 7.2 nM.
Turning to B11, the equilibrium dissociation constant (Kd) came out at 13 nM.
As for B12, the Kd stood at 21 nM. Compared with the last molecule, the Kd is about 1.6-fold higher.
Molecule B13 showed a Kd of 9.1 nM.
Take B14: the affinity, expressed as Kd, was 5.8 nM.
In the case of B15, the Kd was 12 nM. Compared with the last molecule, the Kd is about 2.1-fold higher.
For the molecule B16, the Kd turned out to be 13 nM.
The result for B17 reads 11 nM; that for B18, 16 nM; that for B19, 9 nM.
For B20 the value was 18 nM; for B21, 9.8 nM.
The result for B22 reads 7.6 nM; that for B23, 15 nM.
As to B24, the Kd was determined as 9.9 nM.
With B25, binding was characterised by a dissociation constant (Kd) of 8.9 nM.
Regarding B26, the Kd stood at 3.6 nM.
B27: the Kd amounted to 64 nM.
The result for B28 reads 18 nM.
The molecule B29 displayed a Kd of 8.8 nM.
